Measured values from the supplement of paper PMC10567573.

B1: INTS4 (parent)
chain: AKQIMEETYKMEFMYSGVENKQVV

Variants of: B1
Test: protein stability index of a GFP-peptide fusion (GPS, HEK-293T) (PSI 1-6); higher = more stable
Details: c terminus: a fixed tail appended
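Also: lentivirally expressed fusions sorted by FACS into six bins by GFP to DsRed ratio, PSI derived from sequencing read proportions per bin multiplied by bin number.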

| Variant | protein stability index |
| --- | --- |
| E6T | 1.76 |
| Q3L | 1.75 |
| N20Q | 2.84 |
| V18D | 1.88 |
| Q3D | 2.26 |
| K10M | 1.99 |
| T8W | 2.71 |
| N20G | 2.55 |
| F13R | 3.52 |
| T8N | 2.42 |
| T8C | 1.52 |
| T8I | 1.28 |
| T8V | 1.89 |
| S16D | 1.86 |
| M11K | 3.44 |
| Y9A | 3.9 |
| M14I | 1.54 |
| F13N | 4.04 |
| E19D | 1.78 |
| Y9G | 3.84 |
| V23R | 1.95 |
| Y9T | 3.87 |
| G17D | 1.84 |
| E7I | 2.35 |

| Variant | protein stability index |
| --- | --- |
| A1F | 1.04 |
| S16T | 1.56 |
| E19K | 1.07 |
| V23N | 2.18 |
| G17C | 2.87 |
| Y9Q | 4.41 |
| Y9R | 3.84 |
| M11P | 3.85 |
| E12W | 2.48 |
| Y15C | 1.93 |
| Q3S | 2.35 |
| V23D | 1.68 |
| E7Q | 1.86 |
| A1V | 2.07 |
| M14D | 3.4 |
| M5I | 1.08 |
| M5Q | 3.25 |
| V23P | 1.42 |
| T8K | 2.85 |
| K10L | 1.96 |
| M5E | 3.67 |
| Y9N | 4.24 |
| E7D | 1.68 |
| M5Y | 2.71 |

| Variant | protein stability index |
| --- | --- |
| E12K | 1.59 |
| K21F | 3.8 |
| E19P | 1.56 |
| S16N | 1.98 |
| V18A | 2.04 |
| K10R | 3.13 |
| Y9S | 3.9 |
| K10T | 1.43 |
| I4A | 2.39 |
| V18L | 2.12 |
| V18T | 1.71 |
| K10H | 1.25 |
| Q3K | 1.96 |
| N20E | 2.44 |
| E7L | 1.38 |
| I4E | 3.46 |
| M14W | 2.02 |
| S16A | 2.15 |
| E12N | 1.81 |
| T8P | 3.46 |
| G17S | 1.59 |
| Q22N | 1.31 |
| N20K | 1.46 |
| N20W | 3.06 |

| Variant | protein stability index |
| --- | --- |
| I4S | 2.99 |
| I4D | 2.92 |
| Y9K | 3.57 |
| I4R | 2.07 |
| E7Y | 2.21 |
| E6A | 2.25 |
| E6V | 2.54 |
| M14G | 2.43 |
| K2P | 2.62 |
| E12H | 2.32 |
| Y9I | 2.02 |
| M5C | 2.87 |
| N20P | 1.72 |
| V24P | 2.54 |
| M11Q | 3.2 |
| V23I | 2.2 |
| A1T | 2.8 |
| E7H | 1.7 |
| S16Q | 1.91 |
| V23K | 1.71 |
| K2R | 1.4 |
| Q3N | 1.68 |
| V23F | 1.16 |
| A1K | 2.68 |

| Variant | protein stability index |
| --- | --- |
| E6P | 2.16 |
| E19H | 2.06 |
| N20H | 1.59 |
| E6C | 1.73 |
| M14Y | 1.25 |
| T8A | 1.63 |
| G17L | 1.49 |
| E6F | 2.01 |
| M5H | 2.76 |
| V24K | 1.98 |
| Y15N | 2.31 |
| F13S | 4.24 |
| I4P | 3.39 |
| I4F | 3 |
| E12T | 2.33 |
| K2E | 3.43 |
| Q22W | 1.02 |
| Q3F | 1.97 |
| I4C | 2.6 |
| K2G | 3.06 |
| T8Y | 1.92 |
| E7K | 2.55 |
| V23T | 1.46 |
| K2I | 2.81 |

| Variant | protein stability index |
| --- | --- |
| E19I | 1.54 |
| I4K | 2.38 |
| F13H | 4.01 |
| S16K | 1.7 |
| K21M | 2.07 |
| E7N | 1.9 |
| T8S | 2.39 |
| E6H | 2.21 |
| Q3G | 3.49 |
| K10N | 1.32 |
| Y15A | 2.57 |
| E19L | 1.2 |
| M11F | 2.26 |
| K21S | 2.51 |
| Q22E | 1.48 |
| Q3H | 1.69 |
| Y15I | 2 |
| E6I | 2.61 |
| M5S | 3.08 |
| A1C | 1.86 |
| K10A | 1.91 |
| E19R | 1.95 |
| V18H | 1.87 |
| M14P | 3.88 |

| Variant | protein stability index |
| --- | --- |
| E19N | 1.91 |
| Y15T | 2.08 |
| I4G | 2.89 |
| K10F | 1.13 |
| M14K | 1.71 |
| E6M | 3.07 |
| Y15V | 1.69 |
| M11Y | 2.68 |
| M11D | 4.33 |
| V24H | 1.65 |
| Y9C | 2.31 |
| E6K | 1.89 |
| M14V | 1.71 |
| V18Y | 1.9 |
| Q22C | 2.97 |
| V24I | 1.51 |
| S16C | 2.1 |
| M11C | 2.43 |
| E6W | 2.12 |
| A1M | 1.34 |
| V24N | 2.44 |
| G17P | 1.29 |
| Q22H | 1.98 |
